Assay results published in patent US20250152717A1 (AFFINI T THERAPEUTICS, published 2025).

Molecular target: RAB7B-derived peptide presented by HLA-A11 (human)
Experiment: cell-based or functional assay
Design: unit not given beside the values

- EC50 of the peptide dose-response of CD137 expression, sort-purified TCR 11N4A-transduced T cells: ~35
B1: TCR 11N4A (TCR, V domains shown)
V domain 1: DQQVKQNSPSLSVQEGRISILNCDYTNSMFDYFLWYKKYPAEGPTFLISISSIKDKNEDGRFTVFLNKSAKHLSLHIVPSQPGDSAVYFCAASGVSGNTPLVFGKGTRLSVIA
V domain 2: GVTQTPRYLIKTRGQQVTLSCSPISGHRSVSWYQQTPGQGLQFLFEYFSETQRNKGNFPGRFSGRQFSNSRSEMNVSTLELGDSALYLCASSVGTVEQYFGPGTRLTVTE
